Experimental findings from PMC3326351 (International Journal of Oncology, 2011) are described below.

This data set deals with the molecule itself. As to the kind of experiment: non-reducing SDS-PAGE and immunoblot. A general note: In western blotting, separated proteins are transferred to a membrane and probed.

B1: His-tagged MUC1-C cytoplasmic domain (domain or fragment, human, UniProt P15941 1182-1255, looked up)
chain: AVCQCRRKNYGQLDIFPARDTYHPMSEYPTYHTHGRYVPPSSTDRSPYEKVSAGNGGSSLSYTNPAVAATSANL
On to B1, for which the binding result was “binds”.
